Source: patent US20170081400A1 (CEPHALON, published 2017)
Changes are numbered by the printed parent chain.

B1: 320-492 (antibody, human IgG1, name in Kabat numbering, V domains shown)
VH: QVQLVQSGAEVKKPGASVKVSCKASGYTFTSYDINWVRQAPGQGLEWMGWQNPNSGNTGYAQKFQGRVTMTADRSTSTAYMELSSLRSEDTAVYYCAREVPETAAFEYWGQGTLVTVSS
VL: QSVLTQPPSVSGAPGQRVTISCTSSSSDIGAGLGVHWYQQLPGTAPKLLIEGYYNRPSGVPDRFSGSKSGTSASLTITGLLPEDEGDYYCQSYDGTLSALFGGGTKLTVLG
notes: full-length human IgG1, lambda
B2: 320-501 (antibody, human IgG1, name in Kabat numbering, V domains shown)
VH: B1 VH with Q51L, N52H
VL: B1 VL
notes: as for B1
B3: 320-513 (antibody, human IgG1, name in Kabat numbering, V domains shown)
VH: B1 VH with Q51L, P53Y
VL: B1 VL
notes: as for B1
B4: 320-512 (antibody, human IgG1, name in Kabat numbering, V domains shown)
VH: B1 VH with Q51L, P53W
VL: B1 VL
notes: as for B1
B5: 320-521 (antibody, human IgG1, name in Kabat numbering, V domains shown)
VH: B1 VH with Q51L, N54W
VL: B1 VL
notes: as for B1
B6: 320-511 (antibody, human IgG1, name in Kabat numbering, V domains shown)
VH: B1 VH with Q51L, P53L
VL: B1 VL
notes: as for B1
B7: 320-516 (antibody, human IgG1, name in Kabat numbering, V domains shown)
VH: B1 VH with Q51L, N54Q
VL: B1 VL
notes: as for B1
B8: 320-500 (antibody, human IgG1, name in Kabat numbering, V domains shown)
VH: B1 VH with Q51L, N52D
VL: B1 VL
notes: as for B1
B9: 320-498 (antibody, human IgG1, name in Kabat numbering, V domains shown)
VH: B1 VH with Q51L, N52S
VL: B1 VL
notes: as for B1
B10: 320-503 (antibody, human IgG1, name in Kabat numbering, V domains shown)
VH: B1 VH with Q51L, N52W
VL: B1 VL
notes: as for B1
B11: 320-508 (antibody, human IgG1, name in Kabat numbering, V domains shown)
VH: B1 VH with Q51L, P53D
VL: B1 VL
notes: as for B1
B12: 320-517 (antibody, human IgG1, name in Kabat numbering, V domains shown)
VH: B1 VH with Q51L, N54D
VL: B1 VL
notes: as for B1
B13: 320-499 (antibody, human IgG1, name in Kabat numbering, V domains shown)
VH: B1 VH with Q51L, N52Q
VL: B1 VL
notes: as for B1
B14: 320-522 (antibody, human IgG1, name in Kabat numbering, V domains shown)
VH: B1 VH with Q51L, N54Y
VL: B1 VL
notes: as for B1
B15: 320-506 (antibody, human IgG1, name in Kabat numbering, V domains shown)
VH: B1 VH with Q51L, P53S
VL: B1 VL
notes: as for B1
B16: 320-509 (antibody, human IgG1, name in Kabat numbering, V domains shown)
VH: B1 VH with Q51L, P53H
VL: B1 VL
notes: as for B1
B17: 320-518 (antibody, human IgG1, name in Kabat numbering, V domains shown)
VH: B1 VH with Q51L, N54H
VL: B1 VL
notes: as for B1
B18: 320-519 (antibody, human IgG1, name in Kabat numbering, V domains shown)
VH: B1 VH with Q51L, N54K
VL: B1 VL
notes: as for B1
B19: 320-505 (antibody, human IgG1, name in Kabat numbering, V domains shown)
VH: B1 VH with Q51L, P53A
VL: B1 VL
notes: as for B1
B20: 320-520 (antibody, human IgG1, name in Kabat numbering, V domains shown)
VH: B1 VH with Q51L, N54L
VL: B1 VL
notes: as for B1
B21: 320-525 (antibody, human IgG1, name in Kabat numbering, V domains shown)
VH: B1 VH with Q51L, S55D
VL: B1 VL
notes: as for B1
B22: 320-523 (antibody, human IgG1, name in Kabat numbering, V domains shown)
VH: B1 VH with Q51L, S55A
VL: B1 VL
notes: as for B1
B23: 320-496 (antibody, human IgG1, name in Kabat numbering, V domains shown)
VH: B1 VH with Q51W
VL: B1 VL
notes: as for B1
B24: 320-493 (antibody, human IgG1, name in Kabat numbering, V domains shown)
VH: B1 VH with Q51D
VL: B1 VL
notes: as for B1
B25: 320-514 (antibody, human IgG1, name in Kabat numbering, V domains shown)
VH: B1 VH with Q51L, N54A
VL: B1 VL
notes: as for B1
B26: 320-526 (antibody, human IgG1, name in Kabat numbering, V domains shown)
VH: B1 VH with Q51L, S55H
VL: B1 VL
notes: as for B1
B27: 320-504 (antibody, human IgG1, name in Kabat numbering, V domains shown)
VH: B1 VH with Q51L, N52Y
VL: B1 VL
notes: as for B1
B28: 320-510 (antibody, human IgG1, name in Kabat numbering, V domains shown)
VH: B1 VH with Q51L, P53K
VL: B1 VL
notes: as for B1
B29: 320-524 (antibody, human IgG1, name in Kabat numbering, V domains shown)
VH: B1 VH with Q51L, S55Q
VL: B1 VL
notes: as for B1
B30: 320-515 (antibody, human IgG1, name in Kabat numbering, V domains shown)
VH: B1 VH with Q51L, N54S
VL: B1 VL
notes: as for B1
B31: 320-495 (antibody, human IgG1, name in Kabat numbering, V domains shown)
VH: B1 VH with Q51K
VL: B1 VL
notes: as for B1
B32: 320-507 (antibody, human IgG1, name in Kabat numbering, V domains shown)
VH: B1 VH with Q51L, P53Q
VL: B1 VL
notes: as for B1
B33: 320-502 (antibody, human IgG1, name in Kabat numbering, V domains shown)
VH: B1 VH with Q51L, N52K
VL: B1 VL
notes: as for B1
B34: 320-497 (antibody, human IgG1, name in Kabat numbering, V domains shown)
VH: B1 VH with Q51L, N52A
VL: B1 VL
notes: as for B1
B35: 320-494 (antibody, human IgG1, name in Kabat numbering, V domains shown)
VH: B1 VH with Q51H
VL: B1 VL
notes: as for B1

Columns and labels:
[1] = biological target: T1, human TL1A extracellular domain with N-terminal HIS and FLAG tag (human, UniProt O95150 72-251); experiment: SPR Run 7, antibody on Protein A, TL1A 5 ug/mL, timepoint 44
T1 construct: the whole entry is named; also called TNFSF15
T1 sequence: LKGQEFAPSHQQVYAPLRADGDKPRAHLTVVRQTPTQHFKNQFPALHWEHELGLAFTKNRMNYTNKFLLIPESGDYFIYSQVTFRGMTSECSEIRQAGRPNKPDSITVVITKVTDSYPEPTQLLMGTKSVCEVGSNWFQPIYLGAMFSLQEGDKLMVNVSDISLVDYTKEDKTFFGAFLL
Excerpt: (§1) 1.5. Antibody expression and antigen binding as determined by SPR. Using a CM5 sensor chip (GE Healthcare) Protein A (Pierce) was coupled to the chip surface using an amine coupling kit (GE Healthcare). Protein A was coupled on flow cell 1 and 2 (or alternatively 3 and 4) using a BIACORE® T200. […] The amount of supernatant or purified protein (as well as the concentration) injected during the capture stage varied between runs and is specified in the header of the Tables 3-11. At the end of injection of the supernatant or purified antibody the change in response units was measured. This value was reported as Capture Level in Tables 3-11. […] The response units were measured prior to the end of the dissociation phase. […] The sensorgrams were double referenced (flow cell 2 is subtracted from flow cell 1 and a buffer blank). As there were a large number of antibody variants to screen, these were screened across different runs (Tables 3-11). […] A summary of the conditions used in each run is below:
(§2) 2.1. […] In some experiment the antibodies were purified using Protein A chromatography (See 1.4) and purified antibodies were used in BIACORE® (GE Healthcare) experiments.

[2] = biological target: T1, human TL1A extracellular domain with …; experiment: SPR Run 7, antibody on Protein A, TL1A 5 ug/mL, timepoint 220
Excerpt: as §1, §2

Binder	TL1A Binding Level (Early) [1]	TL1A Binding Level (Late) [2]
B1	89 RU	82 RU
B2	118 RU	108 RU
B3	99 RU	90 RU
B4	126 RU	118 RU
B5	166 RU	152 RU
B6	106 RU	98 RU
B7	92 RU	86 RU
B8	69 RU	53 RU
B9	90 RU	82 RU
B10	41 RU	6 RU
B11	19 RU	12 RU
B12	55 RU	50 RU
B13	122 RU	113 RU
B14	141 RU	129 RU
B15	97 RU	89 RU
B16	52 RU	47 RU
B17	169 RU	153 RU
B18	217 RU	196 RU

Binder	TL1A Binding Level (Early) [1]	TL1A Binding Level (Late) [2]
B19	118 RU	110 RU
B20	174 RU	162 RU
B21	33 RU	17 RU
B22	88 RU	82 RU
B23	93 RU	87 RU
B24	48 RU	46 RU
B25	96 RU	88 RU
B26	134 RU	124 RU
B27	88 RU	65 RU
B28	44 RU	33 RU
B29	55 RU	49 RU
B30	73 RU	67 RU
B31	84 RU	77 RU
B32	27 RU	24 RU
B33	88 RU	59 RU
B34	135 RU	125 RU
B35	150 RU	138 RU
